In US20260070961A1:

Tests used:
[1] = molecular target: DENV-3 VLP (Dengue virus serotype 3); experiment: BLI (Octet-HTX), IgG captured on Protein A biosensor, 5 ug/mL DENV-VLP, 1:1 model
[2] = molecular target: DENV-3 VLP (Dengue virus serotype 3); experiment: BLI (Octet-HTX), IgG captured on Protein A biosensor, 5 ug/mL DENV-VLP

4G2 (antibody)
koff [1]: 0.000345 s⁻¹ | response [2]: 0.316
